Results as given in the supplement of paper PMC6757056.
± gives the standard deviation of the averaged measurements.

B1: library; a variant is named by its letters at N, in order (parent)
chain: GCUGUCACCGGUGCUUGGUACGUUAUAUUCAGCCGGUCUGAUGAGUCUNNNNNNAGACGAAACAGC

What was measured:
(6R,S)-folinic acid [1] = variants of: B1; test: normalized RNA/DNA level without ligand (relative to sTRSVctl = 100) (log10 (% of sTRSVctl)); HEK293T overexpressing SLC46A1; higher = less ribozyme self-cleavage, higher mRNA level; settings: without (6R,S)-folinic acid; ligand present: no
Procedure, shortened: (§1)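 For each 6-well well, 4 µg of library plasmid encoding mCherry-linked ribozyme switches, or eGFP-linked ones in some ligand experiments, was transfected into HEK293T. Any ligand was added 1 h before transfection, and RNA was extracted with EDTA 72 h after it, then reverse-transcribed, amplified, barcoded and sequenced. RNA level was obtained by dividing RNA reads by DNA reads, normalizing to a spiked-in non-cleaving sequence or to the top sequences, then scaling and log-transforming. The top set was 25 sequences, scaling was ×100 with log10, and ≥100 DNA reads were required.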

(6R,S)-folinic acid [2] = variants of: B1; test: normalized RNA/DNA level with ligand (relative to sTRSVctl = 100) (log10 (% of sTRSVctl)); HEK293T overexpressing SLC46A1; ligand concentration (+) RNA-Seq: 6 mM; higher = less ribozyme self-cleavage, higher mRNA level; settings: with (6R,S)-folinic acid; ligand present: yes
Procedure, shortened: as §1

Variant | normalized RNA/DNA level without ligand (log10) ((6R,S)-folinic acid [1]) | normalized RNA/DNA level with ligand (log10) ((6R,S)-folinic acid [2])
CUACUA | 2.02 ± 0.021 | 2.05 ± 0.04
UGUGGC | 1.97 ± 0.022 | 2.019 ± 0.0063
GUAACA | 2.016 ± 0.0052 | 1.98 ± 0.042
GUAACG | 1.997 ± 0.0059 | 2 ± 0.039
GUAACU | 2.03 ± 0.016 | 2.03 ± 0.036
CGUAUC | 2.09 ± 0.0065 | 2.07 ± 0.023
CGUAUG | 2.016 ± 0.012 | 2.01 ± 0.016
GGUAGC | 1.923 ± 0.015 | 2.017 ± 0.013
GGUAGG | 1.933 ± 0.013 | 1.99 ± 0.042
UGUAUA | 1.953 ± 0.0013 | 2.01 ± 0.022
AUACAC | 2.01 ± 0.026 | 2.04 ± 0.039
CGUUCU | 2.07 ± 0.034 | 2.03 ± 0.034
CGUUCA | 2.024 ± 0.004 | 2.044 ± 0.017
CGUUCC | 2.07 ± 0.026 | 2.028 ± 0.017
CGUUCG | 2.0527 ± 1.7e-05 | 2.04 ± 0.047
CGUGCA | 2.01 ± 0.022 | 2.03 ± 0.021
CGUGCG | 1.974 ± 0.0043 | 1.99 ± 0.031
CGUGCC | 2.068 ± 0.0025 | 2.01 ± 0.036
CGUGCU | 2.05 ± 0.012 | 2.05 ± 0.052
GUAAUU | 2.013 ± 0.0027 | 1.99 ± 0.024
CUAAAU | 1.977 ± 0.0084 | 1.99 ± 0.034
CUAAAC | 1.983 ± 0.006 | 1.992 ± 0.018
AGUCUA | 1.992 ± 0.0093 | 2.02 ± 0.05
AGUCUU | 2.017 ± 0.0028 | 1.99 ± 0.028

Variant | normalized RNA/DNA level without ligand (log10) ((6R,S)-folinic acid [1]) | normalized RNA/DNA level with ligand (log10) ((6R,S)-folinic acid [2])
AGUCUG | 1.972 ± 0.0057 | 2.04 ± 0.048
AGUCUC | 2.03 ± 0.016 | 2.02 ± 0.041
AGUCGG | 1.938 ± 0.0053 | 2 ± 0.053
AGUCGC | 2.012 ± 0.015 | 1.98 ± 0.031
AGUGUA | 1.942 ± 0.007 | 2 ± 0.05
AGUGUC | 2.054 ± 0.0091 | 2 ± 0.046
AGUGUG | 1.78 ± 0.018 | 1.97 ± 0.01
AGUGUU | 2.026 ± 0.011 | 2.04 ± 0.027
UGUUAU | 1.95 ± 0.028 | 1.975 ± 0.0073
UUAAAU | 1.974 ± 0.0099 | 2.01 ± 0.024
AGUUGG | 1.87 ± 0.022 | 1.994 ± 0.015
UUAAGU | 1.996 ± 0.014 | 2.024 ± 0.0034
UUAAGC | 2.022 ± 0.0089 | 2.027 ± 0.016
CGUCAG | 2.001 ± 0.013 | 2.057 ± 0.013
CGUCAA | 1.98 ± 0.022 | 1.974 ± 0.018
CGUCAC | 2.032 ± 0.0083 | 1.99 ± 0.049
CGUCAU | 2.01 ± 0.047 | 2 ± 0.021
UGUCAC | 2.03 ± 0.015 | 2.01 ± 0.021
UGUCAG | 1.771 ± 0.011 | 2 ± 0.026
UGUCAU | 1.955 ± 0.0075 | 2 ± 0.034
UGUCAA | 1.968 ± 0.018 | 2.002 ± 0.014
GGUCUC | 2.0526 ± 0.0017 | 2.06 ± 0.026
GGUCUA | 2.01 ± 0.021 | 2.03 ± 0.029
GGUCUG | 2.081 ± 0.0057 | 2.06 ± 0.061

Variant | normalized RNA/DNA level without ligand (log10) ((6R,S)-folinic acid [1]) | normalized RNA/DNA level with ligand (log10) ((6R,S)-folinic acid [2])
GGUCUU | 2.02 ± 0.027 | 2.01 ± 0.032
GGUGUA | 1.972 ± 0.01 | 2.01 ± 0.02
GGUGUC | 2.051 ± 0.019 | 2.01 ± 0.028
GGUGUG | 1.98 ± 0.014 | 2.04 ± 0.034
GGUGUU | 2.029 ± 0.0064 | 2.02 ± 0.041
CUAAUG | 2.026 ± 0.013 | 2.02 ± 0.038
CUAAUC | 2.072 ± 0.014 | 2.007 ± 0.013
CUAAUU | 2.011 ± 0.01 | 2.02 ± 0.061
CUACCC | 2.045 ± 0.011 | 2 ± 0.047
CUACCA | 2.0575 ± 0.0015 | 2.0336 ± 0.0013
CUACCU | 2.044 ± 0.02 | 2.01 ± 0.026
CUACCG | 2.06 ± 0.029 | 2.05 ± 0.025
UGUGAU | 1.903 ± 0.016 | 2 ± 0.027
UGUGAC | 1.949 ± 0.007 | 1.99 ± 0.016
CGUAGG | 1.829 ± 0.015 | 1.979 ± 0.013
CGUAGU | 2.011 ± 0.0076 | 2 ± 0.034
CUACAG | 1.977 ± 0.011 | 2.03 ± 0.029
CUACAC | 2.05 ± 0.011 | 2.023 ± 0.016
CUACAA | 1.98 ± 0.0052 | 1.99 ± 0.024
CUACAU | 1.974 ± 0.0066 | 2.02 ± 0.039
GUAAAG | 1.94 ± 0.015 | 2 ± 0.027
AGUCCA | 2.022 ± 0.0089 | 2.0202 ± 0.002
AGUCCG | 1.988 ± 0.0076 | 2 ± 0.025
AGUCCC | 2.019 ± 0.0039 | 2.046 ± 0.0072

Variant | normalized RNA/DNA level without ligand (log10) ((6R,S)-folinic acid [1]) | normalized RNA/DNA level with ligand (log10) ((6R,S)-folinic acid [2])
AGUCCU | 2.048 ± 0.0074 | 2.05 ± 0.029
GUACCA | 2.0976 ± 0.0018 | 2.038 ± 0.013
GUACCU | 2.086 ± 0.0075 | 2.06 ± 0.051
GUACCG | 2.088 ± 0.0044 | 2.06 ± 0.014
GUACCC | 2.02 ± 0.03 | 2.03 ± 0.06
CGUUAU | 1.977 ± 0.0039 | 2.005 ± 0.016
CGUUAG | 2.009 ± 0.0098 | 2.031 ± 0.006
CGUUAC | 2.037 ± 0.015 | 2.01 ± 0.037
GGUGGU | 2.053 ± 0.016 | 2.03 ± 0.031
GGUGGG | 2.034 ± 0.014 | 2.059 ± 0.017
GGUGGC | 1.98 ± 0.023 | 2.02 ± 0.037
UUACAU | 1.96 ± 0.025 | 1.98 ± 0.028
UUACAC | 2.003 ± 0.0021 | 1.99 ± 0.038
UUACAA | 1.963 ± 0.0022 | 2.01 ± 0.028
UUACAG | 1.898 ± 0.017 | 1.99 ± 0.027
GGUCCG | 2.04 ± 0.018 | 2.03 ± 0.03
GGUCCU | 2.09 ± 0.0075 | 2.09 ± 0.062
GGUCCC | 2.043 ± 0.016 | 2.01 ± 0.027
GGUUAC | 1.999 ± 0.0035 | 2 ± 0.038
GGUUAA | 1.987 ± 0.0045 | 2.02 ± 0.031
CGUGUC | 2.0808 ± 0.0006 | 2.07 ± 0.043
CGUGUU | 2.001 ± 0.016 | 2.03 ± 0.057
CGUGUG | 1.972 ± 0.015 | 1.99 ± 0.032
CGUGUA | 1.981 ± 0.009 | 2 ± 0.028

Variant | normalized RNA/DNA level without ligand (log10) ((6R,S)-folinic acid [1]) | normalized RNA/DNA level with ligand (log10) ((6R,S)-folinic acid [2])
UUACGG | 2.018 ± 0.0069 | 2.049 ± 0.016
UUACGA | 2.013 ± 0.011 | 2.04 ± 0.035
UUACGC | 1.995 ± 0.011 | 1.995 ± 0.018
UGUCGA | 1.904 ± 0.0056 | 1.994 ± 0.013
UGUCGC | 1.966 ± 0.0063 | 2.024 ± 0.0019
GGUUGG | 2.042 ± 0.016 | 2.03 ± 0.031
GGUUGU | 2.023 ± 0.0028 | 2.04 ± 0.051
AGUGAG | 1.767 ± 0.0046 | 1.96 ± 0.028
AGUGAC | 2.006 ± 0.0076 | 1.99 ± 0.04
AGUGAA | 1.933 ± 0.0071 | 1.99 ± 0.033
UGUUGC | 1.98 ± 0.024 | 2.059 ± 0.0084
UGUUGU | 1.9049 ± 9.7e-05 | 2 ± 0.027
CGUUGA | 2.013 ± 0.013 | 2.016 ± 0.0024
CGUUGU | 2.004 ± 0.0073 | 2 ± 0.047
CGUUGG | 1.931 ± 0.019 | 2.0206 ± 0.0013
UGUAGU | 1.903 ± 0.015 | 2.06 ± 0.059
UUAACU | 2.041 ± 0.0026 | 2.018 ± 0.0049
UUAACA | 1.998 ± 0.0047 | 1.971 ± 0.01
UUAACG | 1.934 ± 0.018 | 1.984 ± 0.019
UUAACC | 2.016 ± 0.0049 | 2 ± 0.025
